The results in this text go back to article PMC3207290 (The Journal of Cell Biology, 2011).

The assay has as its target F-actin (polymerized rabbit muscle G-actin) (rabbit, UniProt P68135 1-377). Put plainly: co-sedimentation.

B1: bovine GRK5-Flag (enzyme)
chain: MELENIVANTVLLKAREGGGGKRKGKSKKWKEILKFPHINQCEDLRRTIDRDYCSLCDKQPVGRLLFRQFCETRPGLESYIQFLDSVAEYEVTPDEKLGEKGKEIMTKYLTPKSPVFITQVGRDLVSQTEEKLLQKPCKELFSACVQSVHDYLRGEPFHEYLDSMYFDRFLQWKWLERQPVTKNTFRQYRVLGKGGFGEVCACQVRATGKMYACKRLEKKRIKKRKGESMALNEKQILEKVNSRFVVNLAYAYETKDALCLVLTIMNGGDLKFHIYNMGNPGFEEERALFYAAEILCGLEDLHHENIVYRDLKPENILLDDYGHIRISDLGLAVKIPEGDLIRGRVGTVGYMAPEVLNNQRYGLSPDYWGLGCLIYEMIEGQSPFRGRKEKVKREEVDRRVLETEEVYSHKFSEEAKSICKMLLTKDAKQRLGCQEEGAAEVKRHPFFRNMNFKRLEAGMLDPPFVPDPRAVYCKDVLDIEQFSTVKGVNLDHTDDDFYSKFSTGSVPIPWQSEMIETECFKELNVFGPHGTLSPDLNRSHPPEPPKKGLLQRLFKRQHQNNSKSSPNSKTSFNHHINSNHVSSNSTGSS
Consider B1, for which the affinity, expressed as Kd, was 809 ± 245 nM.

By Kd is commonly meant the free concentration of one partner at which half of the binding sites on the other are occupied at equilibrium, for simple one-to-one binding. Read a high Kd as a looser complex.
